Columns and labels:
EGFP-R96X-TGA reporter [1] = assay: 100 nt 5′ leader sequence library with ArgTCA suppressor tRNA #115, EGFP-R96X-TGA reporter, Flp-In-293 cells (FIGS. 28, 29, 32); format: cell-based, human
Description: FIG. 27 is a schematic representation of the constructs used to test the impact of a 5′ leader sequence on the read-through of a premature termination codon (PTC) by a suppressor tRNA. Constructs contain (i) a 100 bp 5′ leader sequence derived from genomic DNA located upstream of tRNA genes that are highly expressed in HEK293 cells, (ii) a single copy of either the ArgTCA suppressor tRNA #115 (SEQ ID NO: 18) or the GlnTTA suppressor tRNA #163 (SEQ ID NO: 45), and (iii) an RNA polymerase III termination signal (“Term”).
FIG. 28 is a graph depicting the readthrough activity of the indicated ArgTCA suppressor tRNA expression constructs as measured by flow cytometry in Flp-In-293 cells at ~24 hours post transfection. […]
FIG. 29 is a graph depicting the readthrough activity of the indicated ArgTCA suppressor tRNA expression constructs as measured by flow cytometry in Flp-In-293 cells at ~24 hours post transfection. […]
The leader sequences in combination with the ArgTCA suppressor tRNA #115 (SEQ ID NO: 18) or the GlnTTA suppressor tRNA #163 (SEQ ID NO: 45) were tested for PTC readthrough activity by flow cytometry in cell lines co-transfected with an EGFP-R96X-TGA reporter (SEQ ID NO: 31) for ArgTCA constructs or an EGFP-Q69X-TAA reporter (SEQ ID NO: 175) for GlnTTA constructs.

EGFP-R96X-TGA reporter [2] = assay: Flanking sequence length (TABLE 11 vectors Flank300/20/10/0), EGFP-R96X-TGA reporter, Neuro-2a cells (FIGS. 26A-B); format: cell-based, mouse; conditions: single copy, Flank0 vector (random sequence 5′ to tRNA), ~24 hours post transfection
Description: “GFP-PTC” indicates cells transfected with the EGFP-R96X-TGA reporter alone (SEQ ID NO: 31), “GFP” indicates cells transfected with a version of the EGFP reporter that lacks a PTC. Readthrough activity was measured by flow cytometry at ~24 hours post transfection. Data are presented as histograms displaying the frequency distribution of the data versus fluorescence intensity for cells expressing EGFP above background.
Expression vectors were generated that encoded an EGFP-R96X-TGA reporter (SEQ ID NO: 31, as described in Example 1) and a single copy of the ArgTCA suppressor tRNA #115 (tRNA-Arg-TCT-2-1-TCA-SUP_no intron, SEQ ID NO: 18, as described in Example 1). The expression vectors included sequences immediately 5′ and 3′ to the tRNA coding sequence that were in each instance derived from the genomic DNA that is 5′ and 3′ to the mouse tRNA-Arg-TCG-1-1 gene but were of varying length.
The expression vectors in TABLE 11 were tested for PTC readthrough activity by flow cytometry in Neuro-2a cells. Transfections were performed using the Lipofectamine 3000 Transfection Reagent according to the manufacturer's protocol.

B1: tRNA-Arg-TCT-2-1-TCA-SUP_no intron (nucleic acid)
chain: GGCTCCGTGGCGCAATGGATAGCGCATTGGACTTCAAATTCAAAGGTTCCGGGTTCGAGTCCCGGCGGAGTCG
modifications: chemistry not fully specified
B1 was tested, and the “readthrough activity when combined with the identified leader sequences” value (EGFP-R96X-TGA reporter [1]) was “showed high readthrough activity” and the “suppressor tRNA activity with random 5′ leader sequence” value (EGFP-R96X-TGA reporter [2]) was “exhibits activity even with a random 5′ leader sequence”.

Reference: patent US12697350B2, “Methods and compositions for treating a premature termination codon-mediated disorder” (Tevard Biosciences, Inc., priority 2019, dated 2026)
